Assay results reported in patent US20210246166A1 (Bayer, published 2021).
Bridge positions count the residues as written; N and C are the ends. Square brackets hold non-standard residues; d marks the D form. Ends that are not written are not given here. * marks the point of attachment. (Trifluoro)l/L = 5,5,5-trifluoro-DL-leucine; Pro(trans-4-F) = O=C(O)[C@@H]1C[C@@H](F)CN1; Oic = O=C(O)[C@@H]1C[C@@H]2CCCC[C@@H]2N1; Cyclobutylacetic = O=C(CC1CCC1)*; Hyp = O=C(O)[C@@H]1C[C@@H](O)CN1; NMeI = CC[C@H](C)[C@H](NC)C(=O)O; tBuAla = CC(C)(C)C[C@H](N)C(=O)O; Gly(cBu) = N[C@H](C(=O)O)C1CCC1; Pen = CC(C)(S)[C@H](N)C(=O)O; NMeC = CN[C@@H](CS)C(=O)O; Orn = NCCC[C@H](N)C(=O)O; Lac = C[C@H](O)C(=O)O; Aib = CC(C)(N)C(=O)O; Ahx = NCCCCCC(=O)O; Sar = CNCC(=O)O

T1: recombinant human MASP1 active protease (amino acids 297-699, C-terminal His Tag) (human, UniProt P48740 297-699)
T1 sequence: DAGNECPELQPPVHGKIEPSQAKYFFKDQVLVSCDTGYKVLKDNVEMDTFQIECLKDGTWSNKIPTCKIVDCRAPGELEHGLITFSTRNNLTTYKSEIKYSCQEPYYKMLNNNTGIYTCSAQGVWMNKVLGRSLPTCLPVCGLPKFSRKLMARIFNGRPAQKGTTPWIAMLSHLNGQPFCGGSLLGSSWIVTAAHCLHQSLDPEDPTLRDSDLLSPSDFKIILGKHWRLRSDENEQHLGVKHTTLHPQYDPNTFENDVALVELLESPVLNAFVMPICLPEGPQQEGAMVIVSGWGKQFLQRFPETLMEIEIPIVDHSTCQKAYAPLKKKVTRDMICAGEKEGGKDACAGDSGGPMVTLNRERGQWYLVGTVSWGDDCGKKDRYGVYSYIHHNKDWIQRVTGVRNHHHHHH

B1: Example 389: AIC+SRSLPP-(Cyclobutylglycine)-C+IPD-NH2 (peptide)
peptide: AICSRSLPP[Gly(cBu)]CIPD-NH2
modifications: disulfide 3-11; N-terminus assumed
SMILES: CC[C@H](C)[C@H](NC(=O)[C@H](C)N)C(=O)N[C@H]1CSSC[C@@H](C(=O)N[C@H](C(=O)N2CCC[C@H]2C(=O)N[C@@H](CC(=O)O)C(N)=O)[C@@H](C)CC)NC(=O)[C@H](C2CCC2)NC(=O)[C@@H]2CCCN2C(=O)[C@@H]2CCCN2C(=O)[C@H](CC(C)C)NC(=O)[C@H](CO)NC(=O)[C@H](CCCNC(=N)N)NC(=O)[C@H](CO)NC1=O
B2: Example 388: IC+SRSLP-(Oic)-I-(Pen)+IPQ-OH (peptide)
peptide: ICSRSLP[Oic]I[Pen]IPQ-OH
modifications: disulfide 2-10; N-terminus assumed
SMILES: CC[C@H](C)[C@H](N)C(=O)N[C@H]1CSSC(C)(C)[C@@H](C(=O)N[C@H](C(=O)N2CCC[C@H]2C(=O)N[C@@H](CCC(N)=O)C(=O)O)[C@@H](C)CC)NC(=O)[C@H]([C@@H](C)CC)NC(=O)[C@@H]2C[C@@H]3CCCC[C@@H]3N2C(=O)[C@@H]2CCCN2C(=O)[C@H](CC(C)C)NC(=O)[C@H](CO)NC(=O)[C@H](CCCNC(=N)N)NC(=O)[C@H](CO)NC1=O
B3: Example 386: ((N-Me)G)-IC+SRSLPPIC+IpD-OH (peptide)
peptide: [Sar]ICSRSLPPICI[dP]D-OH
modifications: disulfide 3-11; N-terminus assumed
SMILES: CC[C@H](C)[C@H](NC(=O)CNC)C(=O)N[C@H]1CSSC[C@@H](C(=O)N[C@H](C(=O)N2CCC[C@@H]2C(=O)N[C@@H](CC(=O)O)C(=O)O)[C@@H](C)CC)NC(=O)[C@H]([C@@H](C)CC)NC(=O)[C@@H]2CCCN2C(=O)[C@@H]2CCCN2C(=O)[C@H](CC(C)C)NC(=O)[C@H](CO)NC(=O)[C@H](CCCNC(=N)N)NC(=O)[C@H](CO)NC1=O
B4: Example 381: ((N-Me)G)-(Orn)-(Orn)-(Orn)-IC+SRS-((tBu)A)-PPI-(Pen)+IP-NH2 (peptide)
peptide: [Sar][Orn][Orn][Orn]ICSRS[tBuAla]PPI[Pen]IP-NH2
modifications: disulfide 6-14; N-terminus assumed
SMILES: CC[C@H](C)[C@H](NC(=O)[C@H](CCCN)NC(=O)[C@H](CCCN)NC(=O)[C@H](CCCN)NC(=O)CNC)C(=O)N[C@H]1CSSC(C)(C)[C@@H](C(=O)N[C@H](C(=O)N2CCC[C@H]2C(N)=O)[C@@H](C)CC)NC(=O)[C@H]([C@@H](C)CC)NC(=O)[C@@H]2CCCN2C(=O)[C@@H]2CCCN2C(=O)[C@H](CC(C)(C)C)NC(=O)[C@H](CO)NC(=O)[C@H](CCCNC(=N)N)NC(=O)[C@H](CO)NC1=O
B5: Example 387: (Lactic)-IC+SRS-((tBu)A)-PPIC+IPD-NH2 (peptide)
peptide: [Lac]ICSRS[tBuAla]PPICIPD-NH2
modifications: disulfide 3-11; N-terminus assumed
SMILES: CC[C@H](C)[C@H](NC(=O)[C@H](C)O)C(=O)N[C@H]1CSSC[C@@H](C(=O)N[C@H](C(=O)N2CCC[C@H]2C(=O)N[C@@H](CC(=O)O)C(N)=O)[C@@H](C)CC)NC(=O)[C@H]([C@@H](C)CC)NC(=O)[C@@H]2CCCN2C(=O)[C@@H]2CCCN2C(=O)[C@H](CC(C)(C)C)NC(=O)[C@H](CO)NC(=O)[C@H](CCCNC(=N)N)NC(=O)[C@H](CO)NC1=O
B6: Example 383: (Ahx)-IC+SRSLP-(Oic)-IC+I-OH (peptide)
peptide: [Ahx]ICSRSLP[Oic]ICI-OH
modifications: disulfide 3-11; N-terminus assumed
SMILES: CC[C@H](C)[C@H](NC(=O)[C@@H]1CSSC[C@H](NC(=O)[C@@H](NC(=O)CCCCCN)[C@@H](C)CC)C(=O)N[C@@H](CO)C(=O)N[C@@H](CCCNC(=N)N)C(=O)N[C@@H](CO)C(=O)N[C@@H](CC(C)C)C(=O)N2CCC[C@H]2C(=O)N2[C@@H](C[C@@H]3CCCC[C@@H]32)C(=O)N[C@@H]([C@@H](C)CC)C(=O)N1)C(=O)O
B7: Example 390: ((N-Me)G)-IC+SRSLP-((trans-4-Fluoro)P)-IC+IPD-OH (peptide)
peptide: [Sar]ICSRSLP[Pro(trans-4-F)]ICIPD-OH
modifications: disulfide 3-11; N-terminus assumed
SMILES: CC[C@H](C)[C@H](NC(=O)CNC)C(=O)N[C@H]1CSSC[C@@H](C(=O)N[C@H](C(=O)N2CCC[C@H]2C(=O)N[C@@H](CC(=O)O)C(=O)O)[C@@H](C)CC)NC(=O)[C@H]([C@@H](C)CC)NC(=O)[C@@H]2C[C@@H](F)CN2C(=O)[C@@H]2CCCN2C(=O)[C@H](CC(C)C)NC(=O)[C@H](CO)NC(=O)[C@H](CCCNC(=N)N)NC(=O)[C@H](CO)NC1=O
B8: Example 377: IC+SRSLP-(Oic)-I-(Pen)+IPQ-NH2 (peptide)
peptide: ICSRSLP[Oic]I[Pen]IPQ-NH2
modifications: disulfide 2-10; N-terminus assumed
SMILES: CC[C@H](C)[C@H](N)C(=O)N[C@H]1CSSC(C)(C)[C@@H](C(=O)N[C@H](C(=O)N2CCC[C@H]2C(=O)N[C@@H](CCC(N)=O)C(N)=O)[C@@H](C)CC)NC(=O)[C@H]([C@@H](C)CC)NC(=O)[C@@H]2C[C@@H]3CCCC[C@@H]3N2C(=O)[C@@H]2CCCN2C(=O)[C@H](CC(C)C)NC(=O)[C@H](CO)NC(=O)[C@H](CCCNC(=N)N)NC(=O)[C@H](CO)NC1=O
B9: Example 380: GIC+SRSL-(Hyp)-PIC+IPD-OH (peptide)
peptide: GICSRSL[Hyp]PICIPD-OH
modifications: disulfide 3-11; N-terminus assumed
SMILES: CC[C@H](C)[C@H](NC(=O)CN)C(=O)N[C@H]1CSSC[C@@H](C(=O)N[C@H](C(=O)N2CCC[C@H]2C(=O)N[C@@H](CC(=O)O)C(=O)O)[C@@H](C)CC)NC(=O)[C@H]([C@@H](C)CC)NC(=O)[C@@H]2CCCN2C(=O)[C@@H]2C[C@@H](O)CN2C(=O)[C@H](CC(C)C)NC(=O)[C@H](CO)NC(=O)[C@H](CCCNC(=N)N)NC(=O)[C@H](CO)NC1=O
B10: Example 382: (Cyclobutylacetic)-IC+SRS-((tBu)A)-PPI-((N-Me)C)+I-NH2 (peptide)
peptide: Cyclobutylacetic-ICSRS[tBuAla]PPI[NMeC]I-NH2
modifications: disulfide 2-10
SMILES: CC[C@H](C)[C@H](NC(=O)[C@@H]1CSSC[C@H](NC(=O)[C@@H](NC(=O)CC2CCC2)[C@@H](C)CC)C(=O)N[C@@H](CO)C(=O)N[C@@H](CCCNC(=N)N)C(=O)N[C@@H](CO)C(=O)N[C@@H](CC(C)(C)C)C(=O)N2CCC[C@H]2C(=O)N2CCC[C@H]2C(=O)N[C@@H]([C@@H](C)CC)C(=O)N1C)C(N)=O
B11: Example 378: PPIC+SRS-((tBu)A)-PPI-(Pen)+IP-NH2 (peptide)
peptide: PPICSRS[tBuAla]PPI[Pen]IP-NH2
modifications: disulfide 4-12; N-terminus assumed
SMILES: CC[C@H](C)[C@H](NC(=O)[C@@H]1CCCN1C(=O)[C@@H]1CCCN1)C(=O)N[C@H]1CSSC(C)(C)[C@@H](C(=O)N[C@H](C(=O)N2CCC[C@H]2C(N)=O)[C@@H](C)CC)NC(=O)[C@H]([C@@H](C)CC)NC(=O)[C@@H]2CCCN2C(=O)[C@@H]2CCCN2C(=O)[C@H](CC(C)(C)C)NC(=O)[C@H](CO)NC(=O)[C@H](CCCNC(=N)N)NC(=O)[C@H](CO)NC1=O
B12: Example 373: (Aib)-IC+SRSLPPIC+IPD-NH2 (peptide)
peptide: [Aib]ICSRSLPPICIPD-NH2
modifications: disulfide 3-11; N-terminus assumed
SMILES: CC[C@H](C)[C@@H]1NC(=O)[C@@H]2CCCN2C(=O)[C@@H]2CCCN2C(=O)[C@H](CC(C)C)NC(=O)[C@H](CO)NC(=O)[C@H](CCCNC(=N)N)NC(=O)[C@H](CO)NC(=O)[C@@H](NC(=O)[C@@H](NC(=O)C(C)(C)N)[C@@H](C)CC)CSSC[C@@H](C(=O)N[C@H](C(=O)N2CCC[C@H]2C(=O)N[C@@H](CC(=O)O)C(N)=O)[C@@H](C)CC)NC1=O
B13: Example 379: ((N-Me)I)-C+SRS-((tBu)A)-PPI-(Pen)+IP-NH2 (peptide)
peptide: [NMeI]CSRS[tBuAla]PPI[Pen]IP-NH2
modifications: disulfide 2-10; N-terminus assumed
SMILES: CC[C@H](C)[C@H](NC)C(=O)N[C@H]1CSSC(C)(C)[C@@H](C(=O)N[C@H](C(=O)N2CCC[C@H]2C(N)=O)[C@@H](C)CC)NC(=O)[C@H]([C@@H](C)CC)NC(=O)[C@@H]2CCCN2C(=O)[C@@H]2CCCN2C(=O)[C@H](CC(C)(C)C)NC(=O)[C@H](CO)NC(=O)[C@H](CCCNC(=N)N)NC(=O)[C@H](CO)NC1=O

These binders were tested against T1, recombinant human MASP1 active protease … (assay: cell-based or functional assay).

human MASP1 IC50	Binder
1.1 nM	[Sar]ICSRSLP[Oic]I[Pen]IP-NH2 (disulfide 3-11; also: citrate salt) [Example 376: ((N-Me)G)-IC+SRSLP-(Oic)-I-(Pen)+IP-NH2 (Citrate)]
46 nM	B1
45 nM	B2
37 nM	AICSRSLPPIC[2‑Methyl‑D‑alloisoleucine]PD-NH2 (disulfide 3-11) [Example 374: AIC+SRSLPPIC+(2-Methyl-D-alloisoleucine)-PD-NH2]
43 nM	B3
42 nM	GICSRS[(Trifluoro)l/L]PPICIPD-OH (disulfide 3-11) [Example 384: GIC+SRS-((Trifluoro)l/L)-PPIC+IPD-OH]
40 nM	B4
44 nM	B5
40 nM	B6
47 nM	B7
37 nM	B8
40 nM	B9
40 nM	B10
38 nM	B11
37 nM	B12
39 nM	B13

The binders below were run against recombinant human MASP2 active protease (amino acids 297-686, C-terminal His Tag) (human, UniProt O00187 297-686) (assay: cell-based or functional assay).
Chain of recombinant human MASP2 active protease (amino acids 297-686, C-terminal His Tag) (O00187 other isoform, or with tags, fused parts or gaps limits assumed): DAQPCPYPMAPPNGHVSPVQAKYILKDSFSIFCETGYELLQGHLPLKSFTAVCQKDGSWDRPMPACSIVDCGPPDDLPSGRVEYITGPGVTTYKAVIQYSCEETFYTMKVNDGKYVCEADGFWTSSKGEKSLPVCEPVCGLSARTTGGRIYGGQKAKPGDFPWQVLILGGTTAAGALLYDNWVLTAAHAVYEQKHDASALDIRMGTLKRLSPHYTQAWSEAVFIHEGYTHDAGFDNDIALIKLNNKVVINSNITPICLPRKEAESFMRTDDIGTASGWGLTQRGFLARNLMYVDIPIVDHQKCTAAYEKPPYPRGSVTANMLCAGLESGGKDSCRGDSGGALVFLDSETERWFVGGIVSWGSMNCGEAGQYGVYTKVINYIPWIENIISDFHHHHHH

human MASP2 IC50	Binder
35 nM	[Sar]ICSRSLP[Oic]I[Pen]IP-NH2 (disulfide 3-11; also: citrate salt) [Example 376: ((N-Me)G)-IC+SRSLP-(Oic)-I-(Pen)+IP-NH2 (Citrate)]
330 nM	B1
750 nM	B2
14000 nM	AICSRSLPPIC[2‑Methyl‑D‑alloisoleucine]PD-NH2 (disulfide 3-11) [Example 374: AIC+SRSLPPIC+(2-Methyl-D-alloisoleucine)-PD-NH2]
750 nM	B3
260 nM	GICSRS[(Trifluoro)l/L]PPICIPD-OH (disulfide 3-11) [Example 384: GIC+SRS-((Trifluoro)l/L)-PPIC+IPD-OH]
550 nM	B4
2200 nM	B5
800 nM	B6
1300 nM	B7
810 nM	B8
810 nM	B9
41 nM	B10
1100 nM	B11
450 nM	B12
360 nM	B13
